Reference: patent US20110171259A1 (priority 2008, published 2011)
“Also recorded” adds a separate entry of the source. Ends that are not written are not given here.

Experiments:
human TLR 1 and 2 = human TLR 1 and 2 (Homo sapiens, UniProt O60603+Q15399); assay: NF-κB SEAP reporter assay in HEK293 cells expressing TLR 1 and 2; details: TLR1/2-expressing HEK293 cells; 0, 0.01, 0.1, 1.0 μg; 5 hours exposure; FIG. 3; listed as Lip peptide lipidated MC58
[1] = system: SFV (A/New Calcdonia/20/99); assay: Influenza-specific serum IgG ELISA after nasal instillation of SFV with Lip peptide MC58; format: in vivo, C57BL/6 mice; details: 3 μg SFV + 10 μg peptide nasally Day 0 and Day 14, sera Day 28, versus SFV alone; FIG. 6
Experimental: On day 28, mice were euthanized and exsanguinated by cardiac puncture. Influenza-specific IgG levels were measured in sera collected at Day 28 by ELISA using (A/New Calcdonia/20/99) SFV as solid-phase antigen.

Toll-Like Receptor 2 = molecular target: T1, Toll-Like Receptor 2 (Homo sapiens, UniProt O60603+Q15399); details: Fisette et al., 2003; cited from earlier work
T1 construct: host or cells: epithelial cells

TLR4/MD2/CD14 = TLR4/MD2/CD14 (Homo sapiens, UniProt O00206); assay: NF-κB SEAP reporter assay in HEK293 cells expressing TLR4/MD2/CD14; details: FIG. 5
split-flu vaccine (SFV) = format: in vivo, C57BL/6 mice; details: 3 μg SFV + 0.35 μg or 1.0 μg Lip protein nasally Day 0 and Day 14, Day 28 sera, versus SFV alone; batch 1 and batch 2; FIG. 7 and 8

Sequence of TLR4/MD2/CD14 (O00206 24-839): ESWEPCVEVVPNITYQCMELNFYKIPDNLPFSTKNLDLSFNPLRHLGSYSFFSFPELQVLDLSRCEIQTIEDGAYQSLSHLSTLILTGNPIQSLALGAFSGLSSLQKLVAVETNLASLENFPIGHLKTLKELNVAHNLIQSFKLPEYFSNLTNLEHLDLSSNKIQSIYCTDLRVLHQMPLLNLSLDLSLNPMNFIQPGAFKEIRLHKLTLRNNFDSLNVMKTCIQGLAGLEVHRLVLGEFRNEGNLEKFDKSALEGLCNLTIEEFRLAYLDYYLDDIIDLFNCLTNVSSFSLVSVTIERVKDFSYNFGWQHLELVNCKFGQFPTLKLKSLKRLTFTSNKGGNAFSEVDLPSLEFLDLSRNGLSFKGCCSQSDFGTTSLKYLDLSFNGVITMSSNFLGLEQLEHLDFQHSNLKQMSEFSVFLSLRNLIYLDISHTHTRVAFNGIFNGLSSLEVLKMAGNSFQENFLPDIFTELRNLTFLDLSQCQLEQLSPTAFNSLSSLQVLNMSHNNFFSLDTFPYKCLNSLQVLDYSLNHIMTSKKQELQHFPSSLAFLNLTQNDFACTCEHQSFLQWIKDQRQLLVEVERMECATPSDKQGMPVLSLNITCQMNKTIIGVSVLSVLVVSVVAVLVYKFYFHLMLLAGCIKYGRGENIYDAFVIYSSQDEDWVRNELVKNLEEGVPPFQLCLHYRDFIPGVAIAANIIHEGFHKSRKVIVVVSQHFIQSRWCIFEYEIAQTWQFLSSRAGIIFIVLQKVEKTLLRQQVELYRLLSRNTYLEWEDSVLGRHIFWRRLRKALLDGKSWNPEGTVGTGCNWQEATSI
Sequence of TLR4/MD2/CD14 (Q9Y6Y9 19-160 partner): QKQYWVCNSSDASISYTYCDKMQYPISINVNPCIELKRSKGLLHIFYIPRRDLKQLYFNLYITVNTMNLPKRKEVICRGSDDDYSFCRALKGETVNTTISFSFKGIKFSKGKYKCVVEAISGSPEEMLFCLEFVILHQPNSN
Sequence of human TLR 1 and 2 (O60603 21-784): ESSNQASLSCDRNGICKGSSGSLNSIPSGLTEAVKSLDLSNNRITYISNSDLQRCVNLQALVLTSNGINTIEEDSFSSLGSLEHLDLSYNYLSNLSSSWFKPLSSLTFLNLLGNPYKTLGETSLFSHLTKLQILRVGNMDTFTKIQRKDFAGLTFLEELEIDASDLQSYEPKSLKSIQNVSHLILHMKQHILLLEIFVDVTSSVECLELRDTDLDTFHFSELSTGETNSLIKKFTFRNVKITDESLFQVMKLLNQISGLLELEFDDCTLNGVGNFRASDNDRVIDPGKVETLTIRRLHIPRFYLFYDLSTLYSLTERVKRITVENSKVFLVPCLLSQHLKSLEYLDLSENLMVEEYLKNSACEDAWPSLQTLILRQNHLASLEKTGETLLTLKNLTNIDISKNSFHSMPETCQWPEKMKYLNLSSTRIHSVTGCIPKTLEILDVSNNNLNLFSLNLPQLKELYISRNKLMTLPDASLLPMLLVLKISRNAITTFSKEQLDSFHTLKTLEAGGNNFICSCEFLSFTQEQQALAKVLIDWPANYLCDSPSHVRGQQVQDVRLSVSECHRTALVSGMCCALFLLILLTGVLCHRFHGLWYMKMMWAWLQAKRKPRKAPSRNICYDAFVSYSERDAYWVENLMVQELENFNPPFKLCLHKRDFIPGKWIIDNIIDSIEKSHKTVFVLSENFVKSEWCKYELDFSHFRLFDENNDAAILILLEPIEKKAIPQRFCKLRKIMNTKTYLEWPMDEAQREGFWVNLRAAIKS
Sequence of human TLR 1 and 2 (Q15399 25-786): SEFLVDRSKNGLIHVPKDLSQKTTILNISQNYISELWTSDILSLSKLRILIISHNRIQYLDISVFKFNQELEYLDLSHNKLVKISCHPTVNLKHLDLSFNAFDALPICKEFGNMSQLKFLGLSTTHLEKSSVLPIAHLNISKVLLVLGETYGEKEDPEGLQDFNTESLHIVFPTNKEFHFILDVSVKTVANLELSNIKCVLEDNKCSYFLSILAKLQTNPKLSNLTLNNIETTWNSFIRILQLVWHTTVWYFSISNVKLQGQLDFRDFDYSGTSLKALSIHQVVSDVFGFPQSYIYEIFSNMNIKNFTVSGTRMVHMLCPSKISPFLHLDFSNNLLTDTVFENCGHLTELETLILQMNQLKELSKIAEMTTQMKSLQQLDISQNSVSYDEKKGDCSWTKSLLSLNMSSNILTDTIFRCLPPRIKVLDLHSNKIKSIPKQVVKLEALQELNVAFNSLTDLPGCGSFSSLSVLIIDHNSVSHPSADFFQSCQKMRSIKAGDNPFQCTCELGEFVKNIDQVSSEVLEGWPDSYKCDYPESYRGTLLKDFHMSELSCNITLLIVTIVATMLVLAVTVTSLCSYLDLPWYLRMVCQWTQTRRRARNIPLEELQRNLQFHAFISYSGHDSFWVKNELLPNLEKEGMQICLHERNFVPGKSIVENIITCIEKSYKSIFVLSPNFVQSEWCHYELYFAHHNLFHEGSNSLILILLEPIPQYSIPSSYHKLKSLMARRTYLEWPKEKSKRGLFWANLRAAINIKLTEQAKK
T1 sequence (O60603 21-784, species assumed): as the sequence (O60603 21-784) above
T1 sequence (Q15399 25-786, species assumed): as the sequence (Q15399 25-786) above

In the case of “Pam3Cys-GGEKAAEAPAAEAP [Lip peptide MC58, synthetic triacylated H.8 lipopeptide from N. meningitidis MC58 strain]”, the “NF-κB activation (relative 650 nm optic density, SEAP)” value (human TLR 1 and 2) is reported as “mainly TLR1 and 2 agonists” and the “serum influenza-specific IgG levels” value [1] is reported as “statistically significant higher levels”.

In the case of “Pam3Cys-GGEKAAEAPAAEAS [Lip peptide F62, triacylated Lip peptide from N. gonorrhoeae F62]”, the “production of inflammatory cytokines” value (Toll-Like Receptor 2) is listed as “can stimulate”.

B1: Lip protein: Lip protein purified from Neisseria meningitidis (strain 8047) Proteosome preparation (protein)
chain: MKAYLALISAAVIGLAACSQEPAAPAAEATPAAEAPASEAPAAEAAPADAAEAPAAGNCAATVESNDNMQFNTKDIQVSKACKEFTITLKHTGTQPKTSMGHNIVIGKTEDMDGIFKDGVGAADTDYVKPDDARVVAHTKLIGGGEESSLTLDPAKLADGDYKFACTFPGHGALMNGKITLVD
modifications: N.meningitidis
notes: Lip protein purified from Neisseria meningitidis (strain 8047) Proteosome preparation
For B1, the NF-κB activation (TLR4/MD2/CD14) was “no significant increase” and the “antigen-specific IgG levels in sera” value (split-flu vaccine (SFV)) was “statistically significant (p<0.001 and p<0.01) higher levels; also recorded: significantly higher than the SFV alone”.
